This is an account of results in article PMC8355310, “Using cryo-EM to understand antimycobacterial resistance in the catalase-peroxidase (KatG) from Mycobacterium tuberculosis” (Structure(London, England:1993), 2021).

B1: wild-type catalase-peroxidase KatG from Mycobacterium tuberculosis (enzyme)
chain: MPEQHPPITETTTGAASNGCPVVGHMKYPVEGGGNQDWWPNRLNLKVLHQNPAVADPMGAAFDYAAEVATIDVDALTRDIEEVMTTSQPWWPADYGHYGPLFIRMAWHAAGTYRIHDGRGGAGGGMQRFAPLNSWPDNASLDKARRLLWPVKKKYGKKLSWADLIVFAGNCALESMGFKTFGFGFGRVDQWEPDEVYWGKEATWLGDERYSGKRDLENPLAAVQMGLIYVNPEGPNGNPDPMAAAVDIRETFRRMAMNDVETAALIVGGHTFGKTHGAGPADLVGPEPEAAPLEQMGLGWKSSYGTGTGKDAITSGIEVVWTNTPTKWDNSFLEILYGYEWELTKSPAGAWQYTAKDGAGAGTIPDPFGGPGRSPTMLATDLSLRVDPIYERITRRWLEHPEELADEFAKAWYKLIHRDMGPVARYLGPLVPKQTLLWQDPVPAVSHDLVGEAEIASLKSQIRASGLTVSQLVSTAWAAASSFRGSDKRGGANGGRIRLQPQVGWEVNDPDGDLRKVIRTLEEIQESFNSAAPGNIKVSFADLVVLGGCAAIEKAAKAAGHNITVPFTPGRTDASQEQTDVESFAVLEPKADGFRNYLGKGNPLPAEYMLLDKANLLTLSAPEMTVLVGGLRVLGANYKRLPLGVFTEASESLTNDFFVNLLDMGITWEPSPADDGTYQGKDGSGKVKWTGSRVDLVFGSNSELRALVEVYGADDAQPKFVQDFVAAWDKVMNLDRFDVR
modifications: covalent linkage between Trp107, Tyr229 and Met255 (MYW catalytic triad); b-type heme bound in both protomers
notes: also called WT KatG; KatG^INH (with INH added); not shown: His-tag, N-terminal, cleaved
B2: KatG T275P variant from Mycobacterium tuberculosis (enzyme)
chain: MPEQHPPITETTTGAASNGCPVVGHMKYPVEGGGNQDWWPNRLNLKVLHQNPAVADPMGAAFDYAAEVATIDVDALTRDIEEVMTTSQPWWPADYGHYGPLFIRMAWHAAGTYRIHDGRGGAGGGMQRFAPLNSWPDNASLDKARRLLWPVKKKYGKKLSWADLIVFAGNCALESMGFKTFGFGFGRVDQWEPDEVYWGKEATWLGDERYSGKRDLENPLAAVQMGLIYVNPEGPNGNPDPMAAAVDIRETFRRMAMNDVETAALIVGGHTFGKPHGAGPADLVGPEPEAAPLEQMGLGWKSSYGTGTGKDAITSGIEVVWTNTPTKWDNSFLEILYGYEWELTKSPAGAWQYTAKDGAGAGTIPDPFGGPGRSPTMLATDLSLRVDPIYERITRRWLEHPEELADEFAKAWYKLIHRDMGPVARYLGPLVPKQTLLWQDPVPAVSHDLVGEAEIASLKSQIRASGLTVSQLVSTAWAAASSFRGSDKRGGANGGRIRLQPQVGWEVNDPDGDLRKVIRTLEEIQESFNSAAPGNIKVSFADLVVLGGCAAIEKAAKAAGHNITVPFTPGRTDASQEQTDVESFAVLEPKADGFRNYLGKGNPLPAEYMLLDKANLLTLSAPEMTVLVGGLRVLGANYKRLPLGVFTEASESLTNDFFVNLLDMGITWEPSPADDGTYQGKDGSGKVKWTGSRVDLVFGSNSELRALVEVYGADDAQPKFVQDFVAAWDKVMNLDRFDVR
notes: Homodimer (C2 symmetry imposed); no ordered heme modelled in either protomer; also called T275P KatG; not shown: His-tag, N-terminal, cleaved
B3: KatG W107R variant from Mycobacterium tuberculosis (enzyme)
chain: MPEQHPPITETTTGAASNGCPVVGHMKYPVEGGGNQDWWPNRLNLKVLHQNPAVADPMGAAFDYAAEVATIDVDALTRDIEEVMTTSQPWWPADYGHYGPLFIRMARHAAGTYRIHDGRGGAGGGMQRFAPLNSWPDNASLDKARRLLWPVKKKYGKKLSWADLIVFAGNCALESMGFKTFGFGFGRVDQWEPDEVYWGKEATWLGDERYSGKRDLENPLAAVQMGLIYVNPEGPNGNPDPMAAAVDIRETFRRMAMNDVETAALIVGGHTFGKTHGAGPADLVGPEPEAAPLEQMGLGWKSSYGTGTGKDAITSGIEVVWTNTPTKWDNSFLEILYGYEWELTKSPAGAWQYTAKDGAGAGTIPDPFGGPGRSPTMLATDLSLRVDPIYERITRRWLEHPEELADEFAKAWYKLIHRDMGPVARYLGPLVPKQTLLWQDPVPAVSHDLVGEAEIASLKSQIRASGLTVSQLVSTAWAAASSFRGSDKRGGANGGRIRLQPQVGWEVNDPDGDLRKVIRTLEEIQESFNSAAPGNIKVSFADLVVLGGCAAIEKAAKAAGHNITVPFTPGRTDASQEQTDVESFAVLEPKADGFRNYLGKGNPLPAEYMLLDKANLLTLSAPEMTVLVGGLRVLGANYKRLPLGVFTEASESLTNDFFVNLLDMGITWEPSPADDGTYQGKDGSGKVKWTGSRVDLVFGSNSELRALVEVYGADDAQPKFVQDFVAAWDKVMNLDRFDVR
notes: also called W107R KatG; not shown: His-tag, N-terminal, cleaved

This data set deals with the molecule itself. As to the kind of experiment: cryo-EM structure.
As to B1, the binding result is “binds”.

On to B2, for which the binding result is “binds”.

As to B3, the binding result is listed as “binds”.
